The source of these data is patent publication US6030783, “Photo-potentiation of cisplatin chemotherapy” (Massachusetts Institute of Technology).

The test system of one data set is HMG1. The conditions noted are these: [Pt(en)Cl2]; photo-cross-linking efficiency about half that of cis-DDP probe.
Data set [1] addresses T1, HMG domain B (of HMG1) (UniProt P63159 P63159:86-165). The experiment in a line: EMSA; 10-40 equiv protein; about 50% shifted at 1 uM DNA with 1.5 equiv (Example 5); also photo-cross-links at 302 nm via Lys-6; 10 mM Tris pH 7.5, 10 mM MgCl2, 50 mM KCl. To be noted: tags: expressed from pHB1 in E. coli BL21(DE3); label: 5'-32P. As to the method:
Reaction mixtures (10 µL total volume) were prepared containing 10 mM Tris-HCl, pH 7.5, 4% (v/v) glycerol, 10 mM MgCl2, 50 mM KCl, 1 mM EDTA and 0.05% (v/v) Nonidet P-40. HMG domain B [expressed and purified from pHB1/*Escherichia coli* BL21 (DE3) (Chow et al. (1995) *Biochemistry* 33: 15124–30)] was added, and the solution was incubated for 30 min on ice to allow protein-DNA binding. For binding of the 123- and 82-bp probes to HMG1, 0.2 µg of BSA/mL, 2 µg of competitor chicken erythrocyte DNA, and 300 ng of HMG1 were included in the reaction mixtures. To induce photo-cross-linking of the protein—DNA complexes, the reaction mixtures contained in open microcentrifuge tubes were placed on ice and irradiated from about for 1–2 h at a distance of 4 cm from a transilluminator (Ultra-Violet Products, TM-15) equipped with one of several different lamps, with primary spectral outputs of 254, 302, or 365 nm. The light intensity, 2.6–2.9 J m^-2 s^-1, was measured with a UVX radiometer (Ultra-Violet Products). Following irradiation, the reaction mixtures were combined with 5 µL of gel-loading solution [10 M urea, 1.5 mM EDTA, 0.05% (w/v) bromophenol blue and xylene cyanol]. The DNA was denatured by heating at 90° C. for 4 min and then analyzed by denaturing PAGE. The denaturing 8% polyacrylamide gel was run to determine photo-crosslinking of HMG1 to globally platinated 123-bp probes. […]

The target of data set [2] is T1, HMG domain B (of HMG1). The experiment in a line: EMSA; 10-40 equiv protein. The conditions noted are these: tags: expressed from pHB1 in E. coli BL21(DE3); label: 5'-32P. (In general: Mobility shift assays separate free from complexed probe on a gel.)

T1 sequence (P63159 86-165, one chain of several): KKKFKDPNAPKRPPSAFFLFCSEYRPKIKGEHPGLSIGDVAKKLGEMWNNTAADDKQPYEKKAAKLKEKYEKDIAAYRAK

Take [Pt(en)Cl2]-modified DNA: the binding signal (fraction of cis-DDP probe) in the data set with HMG1 was 0.5.

B1: 15Pt/15B cisplatin-modified 15-bp duplex (dsDNA)
DNA 1: CCTCTCTGGTTCTTC
DNA 2: GAAGAACCAGAGAGG
modifications: single cis-[Pt(NH3)2{d(GpG)-N7(1),-N7(2)}] intrastrand cross-link at GG
Regarding B1, the binding result in the data set with HMG domain B (of HMG1) [1] is recorded as “binds”. Turning to CCTCTCTGGTTCTTC (ssDNA, single cis-[Pt(NH3)2{d(GpG)-N7(1),-N7(2)}] intrastrand cross-link at GG) [15Pt single strand], the binding result with HMG domain B (of HMG1) [2] is recorded as “no binding”.
